# Numbering of substitutions follows the chain as printed.
# T1: Peptide 8: Biotin-AEAAAKEAAAKEAAAKEAAAKAAA-Tyr-acid (N-terminal biotin; C-terminal acid)
# T1 construct: Control peptide without PC
# T1 peptide: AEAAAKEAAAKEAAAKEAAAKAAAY
# T2: Peptide 4: Biotin-AGGGGSGGGGSGGGGSAAA-Tyr-acid (N-terminal biotin; C-terminal acid; no PC)
# T2 construct: control peptide without PC
# T2 peptide: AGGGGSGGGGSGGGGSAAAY
# T3: Peptide 8: Biotin-AEAAAKEAAAKEAAAKEAAAKAAA-Tyr-acid (N-terminal biotin; C-terminal acid; no PC)
# T3 construct: control peptide without PC
# T3 peptide: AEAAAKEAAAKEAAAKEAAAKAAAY
# T4: Peptide 4: Biotin-AGGGGSGGGGSGGGGSAAA-Tyr-acid (N-terminal biotin; C-terminal acid)
# T4 construct: Control peptide without PC
# T4 peptide: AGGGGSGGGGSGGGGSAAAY
# B1: PcOxP_DB04_B01 (scFv, V domains shown)
# VH: EVQLLESGGGLVQPGGSLRLSCAASGFTQSDFYMEWVRQAPGKGLEWVAASRNKANDYTTEYADSVKGRFTISRDNSKNTLYLQMNSLRAEDTAVYYCARDYYGESYWYFDVWGQGTLVTVSS
# VL: DIVMTQSPDSLAVSLGERATINCTASVSLYSSKHKVHYLAWYQQKPGQPPKLLIYGPSNRYIGVPDRFSGSGSGTDFTLTISSLQAEDVAVYYCAQFYSYPLTFGGGTKVEIK
# notes: scFv in periplasmic extract
# B2: PcOxP_DB04_D09 (scFv, V domains shown)
# VH: B1 VH with Q29D, E105S
# VL: B1 VL with T24K, A25S, V27E, H34N, P57A, I62S
# notes: scFv in periplasmic extract
# B3: PcOxP_DB04_G09 (scFv, V domains shown)
# VH: B1 VH with F27N, Q29F, A55W, E105S
# VL: B1 VL with V27E, P57A
# notes: scFv in periplasmic extract
# B4: PcOxP_DB04_E05 (scFv, V domains shown)
# VH: B1 VH with F27N, Q29F, D57Y, E105S
# VL: B1 VL with V27E, P57A
# notes: scFv in periplasmic extract
# B5: PcOxP_DB04_F01 (scFv, V domains shown)
# VH: B1 VH with Q29F, D31P, E105S
# VL: B1 VL with V27E, P57A, S99E
# notes: scFv in periplasmic extract
# B6: PcOxP_DB04_F03 (scFv, V domains shown)
# VH: B1 VH with Q29A, N53W, Y102I, E105S
# VL: B1 VL with V27E, P57A
# notes: scFv in periplasmic extract
# B7: PcOxP_DB04_G01 (scFv, V domains shown)
# VH: B1 VH with Q29F, F32Y, A55W, G104L, E105S
# VL: B1 VL with T24K, V27Q, L29V, Y30L, H34N, K35N, H37N, P57A, S99Q
# notes: scFv in periplasmic extract
# B8: PcOxP_DB04_F05 (scFv, V domains shown)
# VH: B1 VH with Q29F, F32Y, E105S
# VL: B1 VL with V27E, K33N, P57V
# notes: scFv in periplasmic extract
# B9: PcOxP_DB04_C11 (scFv, V domains shown)
# VH: B1 VH with Q29F, F32Y, E105S
# VL: B1 VL with V27E, P57A, N59H, Y61Q
# notes: scFv in periplasmic extract
# B10: PcOxP_DB04_G08 (scFv, V domains shown)
# VH: B1 VH with Q29G, E105S
# VL: B1 VL with V27E, P57A, I62Q, S99W
# notes: scFv in periplasmic extract
# B11: PcOxP_DB04_B07 (scFv, V domains shown)
# VH: B1 VH with F27P, Q29F, D57G, E105S
# VL: B1 VL with V27E, P57A
# notes: scFv in periplasmic extract
# B12: PcOxP_DB04_E12 (scFv, V domains shown)
# VH: B1 VH with Q29F, E105S
# VL: B1 VL with V27E, P57A, Y61V, S99I
# notes: scFv in periplasmic extract
# B13: PcOxP_DB04_E08 (scFv, V domains shown)
# VH: B1 VH with Q29S, M34L, A55W, E105S
# VL: B1 VL with V27E, P57V
# notes: scFv in periplasmic extract
# B14: PcOxP_DB04_C10 (scFv, V domains shown)
# VH: B1 VH with Q29F, F32G, S51I, E105S, S106H
# VL: B1 VL with V27E, P57A
# notes: scFv in periplasmic extract
# B15: PcOxP_DB04_B12 (scFv, V domains shown)
# VH: B1 VH with Q29F, F32Y, E105S
# VL: B1 VL with V27E, P57A, Q96A
# notes: scFv in periplasmic extract
# B16: PcOxP_DB04_D01 (scFv, V domains shown)
# VH: B1 VH with Q29F, F32Y, A55G, E61A, E105S
# VL: B1 VL with V27E, P57A, N59Q
# notes: scFv in periplasmic extract
# B17: PcOxP_DB04_D05 (scFv, V domains shown)
# VH: B1 VH with Q29F, F32Y, K54V, E105S
# VL: B1 VL with V27T, P57A
# notes: scFv in periplasmic extract
# B18: PcOxP_DB04_G03 (scFv, V domains shown)
# VH: B1 VH with Q29T, E105S, V112Y
# VL: B1 VL with V27E, P57A, Y61N, Q96H
# notes: scFv in periplasmic extract
# B19: PcOxP_DB04_D10 (scFv, V domains shown)
# VH: B1 VH with Q29G, N53W, E105S
# VL: B1 VL with V27E, S32T, P57A, N59H, S99Q
# notes: scFv in periplasmic extract
# B20: PcOxP_DB04_D12 (scFv, V domains shown)
# VH: B1 VH with Q29F, F32Q, Y58W, E105S
# VL: B1 VL with V27E, P57A
# notes: scFv in periplasmic extract
# B21: PcOxP_DB04_B11 (scFv, V domains shown)
# VH: B1 VH with F27D, Q29F, N53W, E105S
# VL: B1 VL with V27E, P57A
# notes: scFv in periplasmic extract
# B22: PcOxP_DB04_D07 (scFv, V domains shown)
# VH: B1 VH with Q29F, F32Y, N53W, E105S
# VL: B1 VL with V27E, P57A, S99T
# notes: scFv in periplasmic extract
# B23: PcOxP_DB04_B10 (scFv, V domains shown)
# VH: B1 VH with Q29D, D57G, E105S
# VL: B1 VL with V27E, P57A, Y61P, A95G
# notes: scFv in periplasmic extract
# B24: PcOxP_DB04_E06 (scFv, V domains shown)
# VH: B1 VH with Q29G, E105S, S106P
# VL: B1 VL with V27E, P57A
# notes: scFv in periplasmic extract
# B25: PcOxP_DB04_C09 (scFv, V domains shown)
# VH: B1 VH with Q29F, D31S, F32Y, G104L, E105S
# VL: B1 VL with V27E, S32P, P57A, S58E
# notes: scFv in periplasmic extract
# B26: PcOxP_DB04_B06 (scFv, V domains shown)
# VH: B1 VH with Q29F, F32A, E105S
# VL: DIQMTQSPSSLSASVGDRVTITCTASESLYSSKHKVHYLAWYQQKPGKAPKLLIYGASNRYIGVPSRFSGSGSGTDFTLTISSLQPEDFATYYCAQFYDYPLTFGGGTKVEIK
# notes: scFv in periplasmic extract
# B27: PcOxP_DB03_H07 (scFv, V domains shown)
# VH: B1 VH with Q29F, F32Y, E105S
# VL: B26 VL with Y61D, A95G, D99S
# notes: scFv in periplasmic extract
# B28: PcOxP_DB03_H08 (scFv, V domains shown)
# VH: B1 VH with F27G, Q29F, D57T, E105S
# VL: B26 VL with A57S, D99Q
# notes: scFv in periplasmic extract
# B29: PcOxP_DB03_G10 (scFv, V domains shown)
# VH: B1 VH with Q29F, F32A, E105S
# VL: B26 VL with Y61Q, D99T
# notes: scFv in periplasmic extract
# Molecular target: T1, Peptide 8: …
# Assay: scFv ELISA
# Summary of the method: (§1)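 Bound scFv was read as OD450 after HRP–anti-V5 detection, TMB development and HCl stop. PPE with BSA was incubated 1 h at RT on BSA-blocked wells coated overnight at 4° C. with peptide, or on streptavidin wells loaded 1 h with biotinylated PC-peptides at 1 μg/mL.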
row,OD450 [OD450],Binder
1,0.05,B1
2,0.08,B2
3,0.06,B3
4,0.05,B4
5,0.07,B5
6,0.05,B6
7,0.09,B7
8,0.05,B8
9,0.04,B9
10,0.05,B10
11,0.05,B11
12,0.05,B12
13,0.05,B13
14,0.05,B14
15,0.04,B15
16,0.06,B16
17,0.06,B17
18,0.05,B18
19,0.05,B19
20,0.05,B20
21,0.05,B21
22,0.05,B22
23,0.04,B23
24,0.05,B24
25,0.06,B25

# Molecular target: T2, Peptide 4: …
# Assay: scFv ELISA
# Summary of the method: as §1
row,OD450 [OD450],Binder
1,0.06,B26
2,0.05,B27
3,0.06,B28
4,0.05,B29

# Molecular target: T3, Peptide 8: …
# Assay: scFv ELISA
# Summary of the method: as §1
row,OD450 [OD450],Binder
1,0.06,B26
2,0.05,B27
3,0.06,B28
4,0.05,B29

# Molecular target: T4, Peptide 4: …
# Assay: scFv ELISA
# Summary of the method: as §1
row,OD450 [OD450],Binder
1,0.05,B1
2,0.05,B2
3,0.05,B3
4,0.06,B4
5,0.07,B5
6,0.06,B6
7,0.07,B7
8,0.06,B8
9,0.05,B9
10,0.05,B10
11,0.06,B11
12,0.05,B12
13,0.06,B13
14,0.06,B14
15,0.04,B15
16,0.06,B16
17,0.05,B17
18,0.04,B18
19,0.05,B19
20,0.06,B20
21,0.05,B21
22,0.05,B22
23,0.05,B23
24,0.04,B24
25,0.07,B25

# Molecular target: Peptide 5: Biotin-…-[Tyr(PC)]-acid
# Assay: scFv ELISA
row,OD450 [OD450],Binder
1,0.78,B1
2,1.06,B26
3,0.83,B2
4,1.08,B3
5,1.64,B27
6,1.03,B4
7,0.85,B5
8,0.87,B6
9,1.39,B7
10,0.97,B8
11,1.18,B28
12,1.21,B29
13,1.34,B9
14,1.67,B10
15,1.33,B11
16,1.39,B12
17,2.01,B13
18,1.03,B14
19,0.34,B15
20,1.66,B16
21,1.27,B17
22,0.4,B18
23,1.35,B19
24,1.03,B20
25,0.31,B21
26,1.05,B22
27,1.56,B23
28,1.59,B24
29,1.21,B25

# Molecular target: BSA (UniProt P02769)
# Sequence (P02769 25-607 limits assumed): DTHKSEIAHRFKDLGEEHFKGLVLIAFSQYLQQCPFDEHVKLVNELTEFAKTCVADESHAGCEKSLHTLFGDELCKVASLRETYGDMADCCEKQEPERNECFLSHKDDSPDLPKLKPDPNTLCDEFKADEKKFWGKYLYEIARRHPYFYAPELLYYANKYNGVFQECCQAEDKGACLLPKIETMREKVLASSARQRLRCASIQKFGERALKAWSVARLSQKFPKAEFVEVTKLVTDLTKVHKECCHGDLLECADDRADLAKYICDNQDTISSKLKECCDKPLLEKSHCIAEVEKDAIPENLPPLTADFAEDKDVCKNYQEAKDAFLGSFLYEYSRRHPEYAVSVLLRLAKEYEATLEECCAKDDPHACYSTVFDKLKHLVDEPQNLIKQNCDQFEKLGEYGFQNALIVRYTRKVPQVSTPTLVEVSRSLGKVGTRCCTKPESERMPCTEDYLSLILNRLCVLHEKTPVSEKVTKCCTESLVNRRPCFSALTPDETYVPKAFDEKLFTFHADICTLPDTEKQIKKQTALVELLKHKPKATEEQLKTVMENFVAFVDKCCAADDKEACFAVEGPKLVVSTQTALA
# Assay: scFv ELISA
row,OD450 [OD450],Binder
1,0.06,B1
2,0.1,B26
3,0.06,B2
4,0.08,B3
5,0.08,B27
6,0.09,B4
7,0.09,B5
8,0.1,B6
9,0.09,B7
10,0.07,B8
11,0.12,B28
12,0.11,B29
13,0.07,B9
14,0.07,B10
15,0.09,B11
16,0.07,B12
17,0.09,B13
18,0.08,B14
19,0.09,B15
20,0.07,B16
21,0.08,B17
22,0.07,B18
23,0.07,B19
24,0.08,B20
25,0.08,B21
26,0.08,B22
27,0.06,B23
28,0.07,B24
29,0.11,B25

# Molecular target: Peptide 1: Biotin-…-[Tyr(PC)]-acid
# Assay: scFv ELISA
row,OD450 [OD450],Binder
1,0.45,B1
2,0.66,B26
3,0.41,B2
4,0.48,B3
5,1.91,B27
6,0.67,B4
7,0.56,B5
8,0.58,B6
9,0.63,B7
10,0.76,B8
11,0.91,B28
12,1.8,B29
13,0.81,B9
14,1.39,B10
15,0.93,B11
16,1.03,B12
17,1.39,B13
18,0.54,B14
19,0.13,B15
20,1.23,B16
21,0.87,B17
22,0.19,B18
23,1.14,B19
24,0.64,B20
25,0.26,B21
26,1.02,B22
27,1.05,B23
28,1.04,B24
29,0.55,B25
